Assay results published in PMC4511006, “Peptide Inhibitor of Complement C1 (PIC1) Rapidly Inhibits Complement Activation after Intravascular Injection in Rats” (PLoS ONE, 2015).
Ends that are not written are not given here.

Tests used:
Details in all cases: both partners purified
[1] = target: Wild-type recombinant ficolin L (ficolin-2) (human, UniProt Q15485 26-313); experiment: ELISA; ficolins adsorbed at 10 ug/mL, C1q at 25 nM, BSA at 30 ug/mL; biotinylated PA added at various concentrations in blocking buffer with 0.4 M NaCl, 1 h, room temperature; neutravidin-HRP
[2] = target: Wild-type recombinant ficolin H (ficolin-3) (human, UniProt O75636 24-299); experiment: as above
[3] = target: Wild-type recombinant ficolin M (ficolin-1) (human, UniProt O00602 30-326); experiment: as above
C1q [4] = target: T1, C1q (UniProt P02745 23-245; P02746 28-253; P02747 29-245); experiment: cross-linking; C1q and biotinylated PA at a ratio of 1:25 in 0.1 M Na2HPO4, 0.15 M NaCl, pH 8.0, room temperature 2.5 h, with or without 20 uM BS3; SDS-PAGE and blot with streptavidin and anti-C1q
T1 construct: also called purified C1q; intact C1q

C1q [5] = target: T1, C1q; experiment: ELISA; AcPA adsorbed to the plate at 2.5 uM; purified C1q (1 ug) added in 50 mM HEPES pH 7.0 with various concentrations of NaCl, 1 h, room temperature; detected with goat anti-C1q

T1 sequence (P02745 23-245, chain 1 of 3): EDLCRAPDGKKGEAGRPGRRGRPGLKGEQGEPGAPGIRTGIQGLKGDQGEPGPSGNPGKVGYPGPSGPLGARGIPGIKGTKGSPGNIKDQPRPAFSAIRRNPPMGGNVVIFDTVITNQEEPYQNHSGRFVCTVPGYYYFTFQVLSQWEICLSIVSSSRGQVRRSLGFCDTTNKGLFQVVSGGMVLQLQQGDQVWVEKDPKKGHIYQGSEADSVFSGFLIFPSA
T1 sequence (P02746 28-253, chain 2 of 3): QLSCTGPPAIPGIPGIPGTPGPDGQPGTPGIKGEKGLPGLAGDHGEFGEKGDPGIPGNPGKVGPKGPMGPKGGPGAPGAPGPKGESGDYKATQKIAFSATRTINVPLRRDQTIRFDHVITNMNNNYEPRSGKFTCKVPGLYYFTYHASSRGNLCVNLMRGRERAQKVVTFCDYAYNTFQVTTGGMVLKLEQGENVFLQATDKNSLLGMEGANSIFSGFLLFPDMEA
T1 sequence (P02747 29-245, chain 3 of 3): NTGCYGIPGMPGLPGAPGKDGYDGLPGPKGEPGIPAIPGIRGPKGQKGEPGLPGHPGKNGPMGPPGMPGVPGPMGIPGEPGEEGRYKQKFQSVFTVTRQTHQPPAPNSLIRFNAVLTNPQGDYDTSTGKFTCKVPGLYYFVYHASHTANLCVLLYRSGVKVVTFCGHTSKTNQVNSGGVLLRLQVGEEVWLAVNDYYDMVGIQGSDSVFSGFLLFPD
Chain of Wild-type recombinant ficolin L (ficolin-2) (Q15485 26-313): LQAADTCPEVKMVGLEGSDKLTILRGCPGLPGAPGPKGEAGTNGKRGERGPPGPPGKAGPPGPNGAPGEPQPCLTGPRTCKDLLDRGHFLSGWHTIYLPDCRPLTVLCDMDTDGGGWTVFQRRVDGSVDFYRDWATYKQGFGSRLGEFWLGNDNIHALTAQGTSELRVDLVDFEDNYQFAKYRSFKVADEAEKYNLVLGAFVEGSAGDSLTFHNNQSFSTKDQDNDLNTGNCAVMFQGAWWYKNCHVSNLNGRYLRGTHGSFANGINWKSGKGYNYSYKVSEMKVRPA
Chain of Wild-type recombinant ficolin M (ficolin-1) (O00602 30-326): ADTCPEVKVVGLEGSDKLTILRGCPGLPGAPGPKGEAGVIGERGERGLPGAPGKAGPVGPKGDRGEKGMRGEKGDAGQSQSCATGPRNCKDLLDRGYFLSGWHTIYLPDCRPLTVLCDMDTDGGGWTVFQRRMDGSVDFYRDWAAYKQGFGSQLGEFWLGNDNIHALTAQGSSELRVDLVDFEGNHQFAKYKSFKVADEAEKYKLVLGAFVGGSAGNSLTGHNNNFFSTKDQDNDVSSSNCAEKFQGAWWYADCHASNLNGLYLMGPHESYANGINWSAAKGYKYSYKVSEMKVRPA
Chain of Wild-type recombinant ficolin H (ficolin-3) (O75636 24-299): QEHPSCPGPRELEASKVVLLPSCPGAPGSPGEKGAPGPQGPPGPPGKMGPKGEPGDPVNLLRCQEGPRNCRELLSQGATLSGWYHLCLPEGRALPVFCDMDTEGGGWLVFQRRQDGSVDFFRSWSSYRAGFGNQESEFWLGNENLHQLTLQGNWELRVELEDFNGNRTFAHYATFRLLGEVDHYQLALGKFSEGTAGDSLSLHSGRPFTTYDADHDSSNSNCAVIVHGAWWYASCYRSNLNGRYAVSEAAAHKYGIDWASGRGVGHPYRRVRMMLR

B1: C-terminally biotinylated PA peptide (peptide)
peptide: IALILEPICCQERAA-biotin
modifications: cysteine pairing not given here
notes: Polar Assortant (PA), 15 amino-acid derivative of a human astrovirus type 1 coat protein peptide; Detected by its biotin (streptavidin IR 680 or neutravidin-HRP); source: synthetic peptide, bought: New England Peptide (>=90% purity)
- binding result [1]: binds
- binding result [2]: binds
- binding result [3]: binds
- binding result (C1q [4]): binds

B2: Acetylated PA (AcPA) (peptide)
peptide: IALILEPICCQERAA
modifications: cysteine pairing not given here; also: acetylated, position not given here
notes: Polar Assortant (PA), 15 amino-acid derivative obtained by extensive modification of a 15-residue peptide of the human astrovirus type 1 coat protein; also called acetylated Polar Assortant peptide; PIC1; source: synthetic peptide, bought: New England Peptide (>=90% purity)
- binding result (C1q [5]): binds
